# Source: US9732101B2, “Bioreversible boronates for delivery of molecules into cells” (WISCONSIN ALUMNI RESEARCH FOUNDATION, priority 2012, dated 2017)
# Read-outs that look alike come from different tables or passages of the source.
# B1: benzoboroxole-boronated RNase A: RNase A with 5-amino-2-hydroxymethylphenylboronic acid conjugated to protein carboxyl groups by carbodiimide condensation (conjugate, UniProt P61823 27-150, looked up)
# Ribonuclease pancreatic: KETAAAKFERQHMDSSTSAASSSNYCNQMMKSRNLTKDRCKPVNTFVHESLADVQAVCSQKNVACKNGQTNCYQSYSTMSITDCRETGSSKYPNCAYKTTQANKHIIVACEGNPYVPVHFDASV
# modifications: benzoboroxole conjugated to carboxyl groups
# notes: RNase A with 5-amino-2-hydroxymethylphenylboronic acid conjugated to protein carboxyl groups by carbodiimide condensation
# How the values were obtained:
# [1] = test system: Pro-5 cells; assay: Confocal microscopy of live cells; type: cell-based, Chinese hamster; conditions: 5 μM, 4 h
# Experimental: (§1) Cell lines were obtained from American Type Culture Collection (Manassas, Va.) and were maintained according to the recommended procedures. Cells were grown in a cell culture incubator at 37° C. under CO2 (5% v/v) in flat-bottomed culture flasks. Cell medium was supplemented with GIBCO fetal bovine serum (FBS) (10% v/v), penicillin (100 units/mL), and streptomycin (100 μg/mL) in the appropriate cellular medium as follows: Pro-5, MEM α+ribonucleosides+deoxyribonucleosides; Lec-2, MEM α-ribonucleosides-deoxyribonucleosides; and K562, RPMI 1640. Cells were counted by hemocytometry for dispensing into 12-well plates (Corning Costar, Lowell, Mass.) or 8-well chambered coverglass slides (Nuc Lab-Tek II, Thermo Scientific).
# Pro-5 cells were plated on Nunc Lab-tek II 8-well chambered coverglass 24 h before use and grown to 80% confluency. Cells were incubated with 5 μM BODIPY FL-labeled ribonucleases for 4 h. Cell nuclei were stained with Hoechst 33342 (Invitrogen, 2 μg/mL) for the final 15 min of incubation. Cells were then washed twice with PBS, suspended in PBS, and examined using a Nikon Eclipse C1 laser scanning confocal microscope. Results are illustrated in FIG. 4B.
# [2] = Heparin-affinity assay (retention on immobilized heparin column); type: binding; conditions: for retention on column of heparin in presence of fructose: 0.10 M fructose in elution buffer
# Experimental: To assess the affinity of boronated proteins for oligosaccharides the retention of boronated proteins compared to unmodified protein can be measured on a heparin column.
# For example, the affinity of unmodified and benzoboroxole-boronated RNase A for heparin was assessed by retention on a 1.0-mL HiTrap Heparin HP column (GE Healthcare, Piscataway, N.J.). Unmodified and benzoboroxole-boronated RNase A were mixed in a 1:1 ratio (2.0 mg each) in DPBS, and the resulting solution was loaded onto the column. The column was washed with 5 mL of PBS, followed by elution with 45 mL of a linear gradient of NaCl (0.0-1.0 M) in PBS. Elution was monitored by absorbance at 280 nm, and eluted proteins were identified by mass spectrometry. FIG. 2 illustrates an elution profile of a mixture of unmodified RNase A and benzoboroxole-boronated RNase A from a column of immobilized heparin (solid lines). A small amount of unmodified RNase A was apparent in peak B (FIG. 2). It is currently believed that benzoboroxole-boronated RNase A was able to complex to a small amount of unmodified RNase A and extend its elution time. The same assay was then repeated with 100 mM fructose in both buffers (FIG. 2, dashed line). To make fructose-supplemented buffers, fructose (18 g, 100 mmol) was added to 100 mL of a 10× stock solution of PBS, either no additional NaCl or NaCl (58.4 g, 1.00 mol) was added, and both buffers were diluted to a final volume of 1 L and adjusted to pH 7.4.
# [3] = test system: 6-FAM-dArUdAdA-6-TAMRA; assay: Ribonucleolytic activity assay; type: biochemical; conditions: relative to unmodified RNase A; 0.10 M MES-NaOH buffer, pH 6.0, NaCl 0.10 M
# Experimental: Assays were carried out at ambient temperature in 2 mL of 0.10 M MES-NaOH buffer, pH 6.0, containing NaCl (0.10 M). Fluorescence data were fitted to the equation: kcat/KM=(ΔI/Δt)/(If−I0)[E], in which ΔI/Δt is the initial reaction velocity, I0 is the fluorescence intensity before addition of ribonuclease, If is the fluorescence intensity after complete substrate hydrolysis, and [E] is the total ribonuclease concentration. The assay was performed in triplicate.
# [4] = test system: K-562 cells; assay: Cell-proliferation assay, [methyl-3H]thymidine incorporation; type: cell-based, human
# Experimental: The effect of unmodified and boronated RNase A on the proliferation of K-562 cells was assayed as described in For assays, 5 μL of a solution of the ribonuclease or PBS (control) was added to 95 μL of cells (5.0×10^4 cells/mL). For co-treatment assays with fructose, ribonucleases were first serially diluted at 2× concentration, followed by addition of an equal volume of 2 M fructose in PBS to each ribonuclease dilution, resulting in a 1× ribonuclease dilution as before but now containing 1 M fructose. Then, 5 μL of each dilution was added to cells as above, including a control of PBS containing 1 M fructose. Because 5 μL of samples were added to 95 μL of cells, the final concentration of fructose in each well was 50 mM.
# After a 44-h incubation, K-562 cells were treated with [methyl-^3H]thymidine for 4 h, and the incorporation of radioactive thymidine into cellular DNA was quantitated by liquid scintillation counting. The results are shown as the percentage of [methyl-^3H]thymidine incorporated relative to control cells treated with PBS in FIG. 5. […] Values for IC50 were calculated by fitting the curves by nonlinear regression to the equation: y=100%/(1+10^(log(IC^50^)-log [ribonuclease])h), in which y is the total DNA synthesis following the [methyl-^3H]thymidine pulse and h is the slope of the curve.
# [5] = test system: Lec-2 cells; assay: Cellular internalization by flow cytometry; type: cell-based, Chinese hamster
# Experimental: as §1
# (§2) BODIPY-FL was excited with a 488 nm solid-state laser and the emission was collected with a 530/30 bandpass filter. To collect the most reproducible data, for every flow cytometry experiment, the sensitivity (voltage) of the photomultiplier tube was set for all data collections using mid-range Rainbow beads from Spherotech (Lake Forest, Ill.) to a predetermined fluorescence target value. At least 10,000 cellular events were acquired for each sample. Data were analyzed using FlowJo 8.1.3 (Treestar, Ashland, Oreg.).
# (§3) The day prior to an experiment, Pro-5 and Lec-2 cells were plated in 12-well plates at 1×10^5 cells/well. The day of the experiment, the appropriate amount of fructose was dissolved into the cellular medium to obtain a final fructose concentration of 250 mM, and the medium was passed through a 0.45-μm syringe filter from Whatman (Piscataway, N.J.). Non-fructose-containing medium was filtered likewise. Stock solutions of fluorescently labeled ribonucleases were diluted into the cell culture to a final concentration of 5 μM. Ribonucleases were incubated with cells for 4 h. Cells were then rinsed with PBS (2×400 μL), removed from the cell culture plate with trypsin (400 μL, 0.05% (1×) with EDTA; Invitrogen, Carlsbad, Calif.), placed in flow cytometry tubes containing 80 μL of FBS, and incubated on ice until analyzed by flow cytometry. Final fluorescence values were divided by the percent fluorophore labeling of the ribonuclease to determine the corrected value of fluorescence. Experiments were run twice in triplicate unless otherwise indicated. Data is illustrated in FIG. 4A and FIG. 4C.
# [6] = test system: Pro-5 cells; assay: Cellular internalization by flow cytometry; type: cell-based, Chinese hamster
# Experimental: as §1, §2, §3
# [7] = 5 μM, 4 h, relative to unmodified RNase A
molecule,measurement,setting,value
B1,intracellular staining pattern,[1],punctate staining
same,retention on column of heparin in presence of fructose,[2],diminishing retention
same,retention on column of heparin in presence of fructose,[2]; listed as boronated RNAse A,diminished the retention
same,retention on column of heparin,"[2]; versus unmodified RNase A, NaCl gradient in PBS",retained longer
same,ribonucleolytic activity retained,[3],17±2%
same,IC50,"[4]; [methyl-3H]thymidine incorporation, 44-h incubation, read-out: IC50, inhibition of K-562 cell proliferation",4 ± 0.3 µM
same,IC50,"[4]; fructose 50 mM, read-out: IC50, inhibition of K-562 cell proliferation in the presence of fructose",9 ± 1 µM
same,increase in cellular uptake,[5]; [7],4- to 5 fold
same,effect of fructose on enhancement of cellular uptake,[5]; fructose 0.25 M,eliminated
same,increase in cellular uptake,[6]; [7],4- to 5 fold
same,effect of fructose on enhancement of cellular uptake,[6]; fructose 0.25 M,eliminated
